The chains are these.
B1: POU domain, class 3, transcription factor 4, residues 280 to 335; numbered along this chain, P49335 (parent)
chain: KKRTSIEVSVKGVLETHFLKCPKPAAQEISSLADSLQLEKEVVRVWFCNRRQKEKR
B2: Tesmin, residues 368 to 403; numbered along this chain, Q9Y4I5 (parent)
chain: KGCNCRRSGCLKNYCECYEAQIMCSSICKCIGCKNY

± gives the uncertainty stated by the source.

Data on 167 variants can be found in the Human Domainome abundance scans (Beltran et al. 2025).

Variants of B1 are the subject of one data set. As to the kind of experiment: abundance fitness (aPCA) (normalised: wild type 0, dead -1); higher = more abundant; growth selection in yeast, the domain comes from the species named. The conditions noted are these: Homo sapiens.
For E41F, the abundance fitness was -0.841 ± 0.23. On the same count and under the same terms, to E41S belongs -0.368 ± 0.13; to E41I, -0.828 ± 0.31; to E41C, -0.84 ± 0.23. On the same count and under the same terms, to E41K belongs -0.602 ± 0.21; to E41H, -0.161 ± 0.21; to S9F, -0.348 ± 0.28. In the case of S9A, the abundance fitness was -0.056 ± 0.19.

On to S9V, for which the abundance fitness is -0.173 ± 0.15. With S9C, the abundance fitness is -0.017 ± 0.27. Still for that read-out and setting: as for Q52I, the figure is -0.126 ± 0.23.

With Q52G, the abundance fitness is -0.34 ± 0.13. For Q52W, the abundance fitness was -0.685 ± 0.23.

Take T4L: the abundance fitness is -0.021 ± 0.11.

For the variant T4M, the abundance fitness amounted to 0.108 ± 0.14. The same measure, in the same setting: to T4A belongs -0.145 ± 0.16. The same measure, in the same setting: as for C21S, the figure is -0.072 ± 0.12; as for K55G, -0.392 ± 0.13; as for K55V, -0.069 ± 0.13.

On to K40C, for which the abundance fitness is -0.154 ± 0.25. Same read-out and setting: to V43G belongs -0.687 ± 0.17. With V43L, the abundance fitness was -0.437 ± 0.15.

Turning to F47V, the abundance fitness is -0.795 ± 0.19. As for F47Y, the abundance fitness was -0.534 ± 0.3. Still for that read-out and setting: as for F47E, the figure is -0.872 ± 0.23; as for W46N, -0.816 ± 0.29; as for W46E, -0.892 ± 0.25. The same measure, in the same setting: to R56W belongs -0.393 ± 0.18; to R56G, -0.325 ± 0.19; to K2C, -0.8 ± 0.31. Take K2L: the abundance fitness was -0.093 ± 0.15.

Consider K2H, for which the abundance fitness was -0.258 ± 0.23.

On to K23D, for which the abundance fitness is 0.263 ± 0.15.

Regarding E15Y, the abundance fitness is -1.23 ± 0.38. The same measure, in the same setting: as for E15T, the figure is -0.82 ± 0.22.

With E15V, the abundance fitness was -0.756 ± 0.16. Take Q27P: the abundance fitness was -0.761 ± 0.24. Still for that read-out and setting: as for Q27A, the figure is 0.078 ± 0.12; as for G12V, -0.034 ± 0.28; as for V10K, -0.12 ± 0.36. Still for that read-out and setting: to V10S belongs -0.587 ± 0.21; to P22C, -0.502 ± 0.27; to P22T, -0.796 ± 0.23.

Turning to D34Q, the abundance fitness was -0.183 ± 0.21. The same measure, in the same setting: as for D34R, the figure is 0.019 ± 0.12; as for V42F, -0.318 ± 0.26. On the same count and under the same terms, as for V42S, the figure is -0.431 ± 0.17; as for V42D, 0.216 ± 0.41; as for Q37L, -0.664 ± 0.29.

Regarding Q37C, the abundance fitness is -0.198 ± 0.27. Same read-out and setting: as for E7H, the figure is 0.105 ± 0.089; as for S30T, -0.118 ± 0.17; as for S30G, -0.209 ± 0.13.

As for S30H, the abundance fitness is -0.706 ± 0.24. Same read-out and setting: to V13T belongs -0.502 ± 0.42.

With V13A, the abundance fitness was -0.082 ± 0.17.

For V13M, the abundance fitness stood at 0.18 ± 0.34.

On to V13I, for which the abundance fitness was -0.235 ± 0.32.

As to R51K, the abundance fitness was -1.04 ± 0.35.

As to R51M, the abundance fitness is -0.243 ± 0.21. Same read-out and setting: as for R3K, the figure is 0.03 ± 0.33; as for S35Y, -0.364 ± 0.17. Consider N49K, for which the abundance fitness is -0.119 ± 0.16. Same read-out and setting: to N49T belongs -0.363 ± 0.14; to N49G, -0.711 ± 0.17; to R44L, -0.686 ± 0.12.

R44I: the abundance fitness was -1.01 ± 0.36. The same measure, in the same setting: to R44G belongs -0.473 ± 0.14; to S31T, 0.035 ± 0.15. The same measure, in the same setting: to S31H belongs 0.219 ± 0.2; to S31R, 0.29 ± 0.13.

For the variant S31G, the abundance fitness was -0.398 ± 0.13. With A26K, the abundance fitness is -0.415 ± 0.21. Still for that read-out and setting: to A26S belongs -0.095 ± 0.14.

On to A26M, for which the abundance fitness worked out at 0.108 ± 0.18.

For A26W, the abundance fitness was -0.05 ± 0.12.

On to K11V, for which the abundance fitness was -0.117 ± 0.22.

For the variant K11Q, the abundance fitness was found to be 0.14 ± 0.43.

For the variant K11A, the abundance fitness was determined as 0.778 ± 0.47.

For the variant K20L, the abundance fitness is -0.446 ± 0.12. Still for that read-out and setting: to K20P belongs -0.805 ± 0.22; to K20F, -0.344 ± 0.15; to K20I, -0.574 ± 0.2. On the same count and under the same terms, as for K20C, the figure is -0.735 ± 0.18; as for A25T, 0.495 ± 0.14; as for A25I, -0.297 ± 0.22. On the same count and under the same terms, as for F18C, the figure is -0.745 ± 0.21; as for F18P, -0.992 ± 0.29; as for E54M, -0.819 ± 0.3. For the variant E54Q, the abundance fitness was -0.259 ± 0.24. On to L32C, for which the abundance fitness was -0.633 ± 0.25.

As for A33K, the abundance fitness is -0.959 ± 0.41. Still for that read-out and setting: as for K53D, the figure is -0.232 ± 0.2; as for K53R, -0.171 ± 0.15; as for L14G, -0.891 ± 0.12. The same measure, in the same setting: to L14M belongs -0.623 ± 0.17; to L14A, -0.955 ± 0.15. Same read-out and setting: as for E28D, the figure is -0.3 ± 0.18; as for V8H, 0.07 ± 0.28. Regarding V8L, the abundance fitness turned out to be 0.293 ± 0.12. Same read-out and setting: as for V8G, the figure is 0.49 ± 0.11. The same measure, in the same setting: as for H17V, the figure is -0.017 ± 0.12. Regarding E39N, the abundance fitness is -0.134 ± 0.25. The same measure, in the same setting: to E39F belongs -0.735 ± 0.34. On the same count and under the same terms, as for E39V, the figure is -0.565 ± 0.18; as for L38G, -0.679 ± 0.14. Take L38W: the abundance fitness is -0.884 ± 0.21. The same measure, in the same setting: to L38M belongs -0.148 ± 0.16. The same measure, in the same setting: to R50K belongs -0.446 ± 0.2; to R50M, -0.692 ± 0.34. Same read-out and setting: as for R50I, the figure is -0.93 ± 0.28; as for I6T, -0.201 ± 0.096. On to I6L, for which the abundance fitness came to 0.018 ± 0.083. Same read-out and setting: as for I6P, the figure is -0.169 ± 0.091; as for I6Y, -0.613 ± 0.12. On the same count and under the same terms, as for I6D, the figure is -0.249 ± 0.12; as for V45E, 0.193 ± 0.14.

Take V45N: the abundance fitness turned out to be 0.373 ± 0.17. The same measure, in the same setting: to V45I belongs -0.527 ± 0.34; to V45S, 0.097 ± 0.15; to V45F, -0.517 ± 0.37. For the variant S5M, the abundance fitness was determined as 0.289 ± 0.22. Still for that read-out and setting: to S5F belongs -0.155 ± 0.21. Same read-out and setting: as for T16M, the figure is -0.214 ± 0.18; as for T16G, 0.041 ± 0.13.

Turning to T16V, the abundance fitness was -0.504 ± 0.13. On the same count and under the same terms, as for T16D, the figure is 0.157 ± 0.26. Still for that read-out and setting: to T16E belongs 0.368 ± 0.16.

Regarding L19F, the abundance fitness was -0.941 ± 0.3. The same measure, in the same setting: as for L19V, the figure is -0.437 ± 0.13; as for C48Q, 0.154 ± 0.16.

The variants in a further data set derive from B2. The data set is described as above. The settings on record: Homo sapiens.
Regarding C30G, the abundance fitness is -0.29 ± 0.066.

Consider C30M, for which the abundance fitness was -1.15 ± 0.25. In the case of C30V, the abundance fitness is -0.352 ± 0.087. Still for that read-out and setting: as for C30L, the figure is -1 ± 0.11; as for C30H, -0.498 ± 0.15. On the same count and under the same terms, as for C30K, the figure is -0.249 ± 0.12; as for C30Q, -0.196 ± 0.096. Same read-out and setting: as for C30I, the figure is -0.945 ± 0.2; as for C30A, -0.252 ± 0.074; as for C30E, -0.226 ± 0.076.

With C30T, the abundance fitness is -0.468 ± 0.12.

As to C30R, the abundance fitness was -0.425 ± 0.072. Same read-out and setting: to C30P belongs -0.209 ± 0.095.

For C30S, the abundance fitness was -0.355 ± 0.08. With Y36W, the abundance fitness was found to be 0.02 ± 0.11. On the same count and under the same terms, as for Y36D, the figure is 0.145 ± 0.13; as for Y36I, 0.371 ± 0.13; as for Y36G, 0.193 ± 0.1.

Regarding Y36R, the abundance fitness amounted to 0.305 ± 0.086.

Consider Y36N, for which the abundance fitness came out at 0.02 ± 0.14. On the same count and under the same terms, as for Y36T, the figure is 0.15 ± 0.18. Same read-out and setting: as for Y36A, the figure is 0.209 ± 0.11; as for Y36P, 0.31 ± 0.095. Still for that read-out and setting: to Y36V belongs 0.286 ± 0.1; to Y36L, -0.05 ± 0.1. Consider Y36K, for which the abundance fitness was -0.317 ± 0.26. Consider Y36S, for which the abundance fitness is -0.016 ± 0.14. Still for that read-out and setting: as for S26N, the figure is -0.079 ± 0.26; as for S26R, -0.241 ± 0.081; as for S26T, -0.095 ± 0.1.

Consider S26M, for which the abundance fitness is -0.384 ± 0.17. Still for that read-out and setting: to S26K belongs 0.032 ± 0.11; to S26A, 0.05 ± 0.077; to S26V, -0.159 ± 0.083. Same read-out and setting: to S26F belongs -0.651 ± 0.2; to S26P, -0.624 ± 0.28.
